For this assay, the target named is T1, recombinant human PD-1-Fc (GenScript) (human, UniProt Q15116 25-167, limits assumed).
T1 construct: Bought reagent (GenScript); not shown: Fc part of the bought fusion
In words: sandwich ELISA; PD-1-Fc coated (200 ng/mL), purified trap protein 0-40 µg/mL, anti-His-tag-HRP detection. Here is the method: FIG. 2A-2E depict characterization of trap protein. […] (2D and 2E) Binding ability of trap to PD-1 and TGF-β using sandwich ELISA, wherein purified trap protein was added to PD-1-Fc-coated or TGF-β-coated plates, followed by detection by anti-His-tag antibody conjugated with HRP.
The binding ability of trap protein to PD-1 and TGFβ protein was evaluated by sandwich ELISA, wherein recombinant human PD-1-Fc (GenScript) or […] protein (R&D Systems) (200 ng/mL) was coated on the plates, followed by purified trap protein (0-40 μg/mL) detected by anti-6×HIS TAG® antibody-HRP (1:500 diluted, Abcam).

T1 sequence (Q15116 25-167 limits assumed): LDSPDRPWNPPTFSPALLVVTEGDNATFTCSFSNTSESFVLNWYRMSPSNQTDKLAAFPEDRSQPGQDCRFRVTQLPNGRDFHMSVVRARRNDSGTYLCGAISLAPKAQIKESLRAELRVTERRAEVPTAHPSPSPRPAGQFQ

B1: trap protein labeled with a His-tag (anti-PD-1 scFv fused to a TGF-β-binding sequence of TGF-βRII, produced in transfected 293T cells) (other, not shown: small tags and cut ends)
chain: DIVLTQSPATLSLSPGERATLSCRASKSVSTSGFNYMHWYQQKPGQAPRLLIFLASNLASGVPARFSGSGSGTDFTLTISSLEPEDFAVYYCQHGRELPLTFGQGTKLEIGGGGSGGGGSGGGGSQVQLVQSGAEVKKPGASVKVSCKASGYTFTNYYMYWVRQAPGQGLEWIGGINPSNGGTNFNEKFKNKATMTVDKSTSTAYMELSSLRSEDTAVYYCTRRDYNYDGGFDYWGQGTLVTVSSGGGGSGGGGSTIPPHVQKSVNNDMIVTDNNGAVKFPQLCKFCDVRFSTCDNQKSCMSNCSITSICEKPQEVCVAVWRKNDENITLETVCHDPKLPYHDFILEDAASPKCIMKEKKKPGETFFMCSCSSDECNDNIIFSEEYNTSNPD
notes: Western blot gives 56 kDa; The text says the scFv derives from antibody 5C4; also called bifunctional trap protein; purified trap protein
For B1, the binding result was “binds”.

The values are drawn from patent US20230310601A1 (UNIVERSITY OF SOUTHERN CALIFORNIA, published 2023).
